# B1: STEAP1 (parent)
# chain: WMLTRKQFGLLSFFFAVLHAIYSL
# B2: PCDHGA10 (parent)
# chain: FGIEIEVTDINDNAPKFQAENLDV
# Variants of: B1
# Experiment: protein stability index of a GFP-peptide fusion (GPS, HEK-293T) (PSI 1-6); higher = more stable
# Conditions: c terminus: a fixed tail appended
# 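Also: lentivirally expressed fusions sorted by FACS into six bins by GFP to DsRed ratio, PSI derived from sequencing read proportions per bin multiplied by bin number.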
row,Variant,protein stability index
1,WMLTRKQFGLLSFIFAVLHAIYSL,2.96
2,WMLTRKQFGLLSFTFAVLHAIYSL,2.46
3,WMLTRKQFGLLSFNFAVLHAIYSL,2.85
4,WMLTRKQFGLLSFYFAVLHAIYSL,1.47
5,WMLTRKQFGLLSFLFAVLHAIYSL,1.73
6,WMLTRKQFGALSFFFAVLHAIYSL,1.76
7,WMLTRKQFGTLSFFFAVLHAIYSL,1.96
8,WWLTRKQFGLLSFFFAVLHAIYSL,1.75
9,WALTRKQFGLLSFFFAVLHAIYSL,1.74
10,WNLTRKQFGLLSFFFAVLHAIYSL,2.18
11,WILTRKQFGLLSFFFAVLHAIYSL,1.64
12,WCLTRKQFGLLSFFFAVLHAIYSL,1.49
13,WLLTRKQFGLLSFFFAVLHAIYSL,1.97
14,WMLTRKQFLLLSFFFAVLHAIYSL,1.89
15,WMLTRKQFCLLSFFFAVLHAIYSL,1.89
16,WMLTRKQFELLSFFFAVLHAIYSL,1.99
17,GMLTRKQFGLLSFFFAVLHAIYSL,1.91
18,IMLTRKQFGLLSFFFAVLHAIYSL,2.44
19,YMLTRKQFGLLSFFFAVLHAIYSL,2.37
20,LMLTRKQFGLLSFFFAVLHAIYSL,2.24
21,FMLTRKQFGLLSFFFAVLHAIYSL,1.71
22,HMLTRKQFGLLSFFFAVLHAIYSL,2.1
23,VMLTRKQFGLLSFFFAVLHAIYSL,2.18
24,WMLTRKRFGLLSFFFAVLHAIYSL,1.7
25,WMLTRKWFGLLSFFFAVLHAIYSL,1.86

row,Variant,protein stability index
1,WMLTRKHFGLLSFFFAVLHAIYSL,2.53
2,WMLTRKAFGLLSFFFAVLHAIYSL,2.49
3,WMLTRKDFGLLSFFFAVLHAIYSL,2.01
4,WMLTRKQFGLLSMFFAVLHAIYSL,2.13
5,WMLTRKQFGLLSVFFAVLHAIYSL,3.35
6,WMLTRLQFGLLSFFFAVLHAIYSL,3.1
7,WMLTRDQFGLLSFFFAVLHAIYSL,1.18
8,WMLTRFQFGLLSFFFAVLHAIYSL,1.79
9,WMLTRQQFGLLSFFFAVLHAIYSL,2.48
10,WMLTRKQFGLGSFFFAVLHAIYSL,1.96
11,WMLTRKQFGLASFFFAVLHAIYSL,2.01
12,WMLTRKQFGLQSFFFAVLHAIYSL,1.67
13,WMLTRKQFGLFSFFFAVLHAIYSL,1.72
14,WMLTRKQFGLESFFFAVLHAIYSL,2.43
15,WMLTRKQFGLVSFFFAVLHAIYSL,2.15
16,WMLTRKQFGLNSFFFAVLHAIYSL,3.38
17,WMLTRKQFGLLSFFFAVLHMIYSL,1.66
18,WMLTRKQFGLLSFFFAVLHSIYSL,2.41
19,WMLTRKQFGLLSFFFAVLHQIYSL,2.69
20,WMLTRKQFGLLSFFFAVLHVIYSL,1.08
21,WMLTRKQFGLLSFFFAVLHAIYSR,1.84
22,WMLTRKQFGLLSFFFAVLHAIYSF,1.46
23,WMLTRKQFGLLSFFFAVLHAIYSQ,1.94
24,WMLTRKQFGLLSFFFAVLHAIYSM,1.97
25,WMLTRKQFGLLSFFFAVLHAIYSD,2.7

row,Variant,protein stability index
1,WMLTRKQFGLLSFFFAVLTAIYSL,2.67
2,WMLTRKQFGLLSFFFAVLQAIYSL,2.22
3,WMLTRKQFGLLSFFFAVLDAIYSL,1.82
4,WMLTRKQFGLLSFFFAVLIAIYSL,2.58
5,WMLTRKQFGLLSFFFAVLPAIYSL,3.26
6,WMLTRKQFGLLSFFFAVLYAIYSL,3.25
7,WMLTRKQFGLLLFFFAVLHAIYSL,1.66
8,WMLTRKQFGLLDFFFAVLHAIYSL,1.28
9,WMLTRKQFGLLIFFFAVLHAIYSL,1.61
10,WMLTRKQPGLLSFFFAVLHAIYSL,1.64
11,WMLTRKQQGLLSFFFAVLHAIYSL,2.11
12,WMLTRKQAGLLSFFFAVLHAIYSL,1.74
13,WMLTRKQRGLLSFFFAVLHAIYSL,2.31
14,WMLTRKQWGLLSFFFAVLHAIYSL,1.88
15,WMLTRKQFGLLSFFFAVLHAWYSL,1.63
16,WMLTRKQFGLLSFFFAVLHAKYSL,2.41
17,WMLTRKQFGLLSFFFAVLHAMYSL,1.66
18,WMLTRKQFGLLSFFFAVLHALYSL,3.18
19,WMLTRKQFGLLSFFFAVLHASYSL,2.16
20,WMLTRKQFGLLSFFFAVLHAAYSL,3.66
21,WMLTRKQFGLLSFFFAVRHAIYSL,1.8
22,WMLTRKQFGLLSFFFAVKHAIYSL,3.01
23,WMLTRKQFGLLSFFFAVDHAIYSL,3.5
24,WMLDRKQFGLLSFFFAVLHAIYSL,1.66
25,WMLPRKQFGLLSFFFAVLHAIYSL,1.7

row,Variant,protein stability index
1,WMLFRKQFGLLSFFFAVLHAIYSL,2.31
2,WMLYRKQFGLLSFFFAVLHAIYSL,1.41
3,WMLGRKQFGLLSFFFAVLHAIYSL,1.63
4,WMLMRKQFGLLSFFFAVLHAIYSL,1.69
5,WMLRRKQFGLLSFFFAVLHAIYSL,1.59
6,WMLTRKQFGLLSFFFAVLHAIPSL,2.29
7,WMLTRKQFGLLSFFFAVLHAIWSL,1.99
8,WMLTRKQFGLLSFFFAVLHAIESL,2.93
9,WMLTRKQFGLLSFFFAVLHAIMSL,2.45
10,WMLTRKQFGLLSFFFAVLHAITSL,2.03
11,WMDTRKQFGLLSFFFAVLHAIYSL,2.93
12,WMTTRKQFGLLSFFFAVLHAIYSL,2.36
13,WMQTRKQFGLLSFFFAVLHAIYSL,2.05
14,WMKTRKQFGLLSFFFAVLHAIYSL,1.71
15,WMLTWKQFGLLSFFFAVLHAIYSL,2.1
16,WMLTCKQFGLLSFFFAVLHAIYSL,1.52
17,WMLTFKQFGLLSFFFAVLHAIYSL,2.14
18,WMLTNKQFGLLSFFFAVLHAIYSL,2.12
19,WMLTTKQFGLLSFFFAVLHAIYSL,3.62
20,WMLTRKQFGLLSFFFFVLHAIYSL,1.93
21,WMLTRKQFGLLSFFFPVLHAIYSL,1.59
22,WMLTRKQFGLLSFFFYVLHAIYSL,1.54
23,WMLTRKQFGLLSFFFTVLHAIYSL,2.63
24,WMLTRKQFGLLSFFFGVLHAIYSL,1.77
25,WMLTRKQFGLLSFFFWVLHAIYSL,2.19

row,Variant,protein stability index
1,WMLTRKQFGLLSFFFAVLHAIYPL,1.89
2,WMLTRKQFGLLSFFFAVLHAIYML,2.3
3,WMLTRKQFGLLSFFFAVLHAIYGL,1.48
4,WMLTRKQFGLLSFFFAVLHAIYEL,1.49
5,WMLTRKQFGLLSFFFAVLHAIYNL,2.21
6,WMLTRKQFGLLSFFFAVLHAIYHL,1.71
7,WMLTRKQFGLLSFFFAVLHAIYWL,2
8,WMLTRKQFGLLSFFFAVLHAIYDL,1.95
9,WMLTRKQFGLLSFFFAVLHAIYQL,1.39
10,WMLTRKQFGLLSFFNAVLHAIYSL,1.4
11,WMLTRKQFGLLSFFLAVLHAIYSL,2
12,WMLTRKQFGLLSFFQAVLHAIYSL,2.62
13,WMLTRKQFGLLSFFCAVLHAIYSL,1.77
14,WMLTRKQFGLLSFFPAVLHAIYSL,1.78
15,WMLTRKQFGLLSFFRAVLHAIYSL,1.7
16,WMLTRKQFGLLSFFMAVLHAIYSL,1.62
17,WMLTRKQFGLLSFFIAVLHAIYSL,1.94
18,WMLTRKQFGLLSFFVAVLHAIYSL,1.51
19,WMLTRKQFGLLSFFHAVLHAIYSL,1.73
20,WMLTRKQFGLLSFFKAVLHAIYSL,1.58
21,WMLTRKQFGLLSFFFACLHAIYSL,2.6
22,WMLTRKQFGLLSFFFAPLHAIYSL,2.19
23,WMLTRKQFGLLSFFFADLHAIYSL,5.3

# Variants of: B2
# Experiment: as above
# Conditions: c terminus: a fixed tail appended
row,Variant,protein stability index
1,FGIAIEVTDINDNAPKFQAENLDV,2.46
2,FGIKIEVTDINDNAPKFQAENLDV,2.11
3,FGIFIEVTDINDNAPKFQAENLDV,1.66
4,FGIDIEVTDINDNAPKFQAENLDV,3.44
5,FGILIEVTDINDNAPKFQAENLDV,2.28
6,FGIGIEVTDINDNAPKFQAENLDV,3.42
7,FGIHIEVTDINDNAPKFQAENLDV,2.2
8,FGICIEVTDINDNAPKFQAENLDV,2.6
9,FGIIIEVTDINDNAPKFQAENLDV,1.75
10,FCIEIEVTDINDNAPKFQAENLDV,2
11,FVIEIEVTDINDNAPKFQAENLDV,1.64
12,FDIEIEVTDINDNAPKFQAENLDV,2.72
13,FEIEIEVTDINDNAPKFQAENLDV,1.88
14,FLIEIEVTDINDNAPKFQAENLDV,2.17
15,FYIEIEVTDINDNAPKFQAENLDV,3
16,FQIEIEVTDINDNAPKFQAENLDV,2.09
17,FAIEIEVTDINDNAPKFQAENLDV,2.02
18,FNIEIEVTDINDNAPKFQAENLDV,1.9
19,FMIEIEVTDINDNAPKFQAENLDV,1.9
20,FSIEIEVTDINDNAPKFQAENLDV,1.92
21,FIIEIEVTDINDNAPKFQAENLDV,2.57
22,FFIEIEVTDINDNAPKFQAENLDV,1.86

row,Variant,protein stability index
1,FPIEIEVTDINDNAPKFQAENLDV,4.63
2,FRIEIEVTDINDNAPKFQAENLDV,1.49
3,FHIEIEVTDINDNAPKFQAENLDV,2.18
4,FTIEIEVTDINDNAPKFQAENLDV,1.78
5,FKIEIEVTDINDNAPKFQAENLDV,1.52
6,FGLEIEVTDINDNAPKFQAENLDV,4.08
7,FGCEIEVTDINDNAPKFQAENLDV,4.43
8,FGFEIEVTDINDNAPKFQAENLDV,2.71
9,FGHEIEVTDINDNAPKFQAENLDV,4.88
10,FGDEIEVTDINDNAPKFQAENLDV,4.76
11,FGYEIEVTDINDNAPKFQAENLDV,3.84
12,FGKEIEVTDINDNAPKFQAENLDV,4.73
13,FGEEIEVTDINDNAPKFQAENLDV,5.11
14,FGAEIEVTDINDNAPKFQAENLDV,4.52
15,FGTEIEVTDINDNAPKFQAENLDV,4.65
16,FGSEIEVTDINDNAPKFQAENLDV,5.2
17,FGPEIEVTDINDNAPKFQAENLDV,4.96
18,FGNEIEVTDINDNAPKFQAENLDV,4.68
19,FGWEIEVTDINDNAPKFQAENLDV,3.62
20,FGVEIEVTDINDNAPKFQAENLDV,3.65
21,FGREIEVTDINDNAPKFQAENLDV,4.52
22,FGGEIEVTDINDNAPKFQAENLDV,4.73

row,Variant,protein stability index
1,FGQEIEVTDINDNAPKFQAENLDV,4.79
2,FGMEIEVTDINDNAPKFQAENLDV,3.96
3,CGIEIEVTDINDNAPKFQAENLDV,3.59
4,EGIEIEVTDINDNAPKFQAENLDV,4.8
5,VGIEIEVTDINDNAPKFQAENLDV,2.93
6,QGIEIEVTDINDNAPKFQAENLDV,4.58
7,RGIEIEVTDINDNAPKFQAENLDV,4.17
8,GGIEIEVTDINDNAPKFQAENLDV,4.49
9,LGIEIEVTDINDNAPKFQAENLDV,3.05
10,HGIEIEVTDINDNAPKFQAENLDV,4.67
11,AGIEIEVTDINDNAPKFQAENLDV,4.72
12,SGIEIEVTDINDNAPKFQAENLDV,4.75
13,KGIEIEVTDINDNAPKFQAENLDV,4.39
14,WGIEIEVTDINDNAPKFQAENLDV,2.54
15,MGIEIEVTDINDNAPKFQAENLDV,3.52
16,DGIEIEVTDINDNAPKFQAENLDV,4.71
17,NGIEIEVTDINDNAPKFQAENLDV,4.69
18,PGIEIEVTDINDNAPKFQAENLDV,5.08
19,TGIEIEVTDINDNAPKFQAENLDV,4.93
20,YGIEIEVTDINDNAPKFQAENLDV,3.52
21,IGIEIEVTDINDNAPKFQAENLDV,2.57
